This note sets out measurements from FireProtDB (doi:10.1371/journal.ppat.1004158).

B1: Heterokaryon incompatibility protein s, Q03689 (parent)
chain: MSEPFGIVAGALNVAGLFNNCVDCFEYVQLGRPFGRDYERCQLRLDIAKARLSRWGEAVKINDDPRFHSDAPTDKSVQLAKSIVEEILLLFESAQKTSKRYELVADQQDLVVFEDKDMKPIGRALHRRLNDLVSRRQKQTSLAKKTAWALYDGKSLEKIVDQVARFVDELEKAFPIEAVCHKLAEIEIEEVEDEASLTILKDAAGGIDAAMSDAAAQKIDAIVGRNSAKDIRTEERARVQLGNVVTAAALHGGIRISDQTTNSVETVVGKGESRVLIGNEYGGKGFWDN

In this data set the parent is B1. Particulars: Podospora anserina; pH 7.5; 25 °C; GdnHCl; optical density; structure 2KJ3; whole UniProt chain shown.

Take MSEPFGIVAGALNVAGLFNNCVDCFEYVQLGRPFGRDYERCQLRLDIAKARLSRWGEAVKINDDPRFHSDAPTDKSVQLAKSIVEEILLLFESAQKTSKRYELVADQQDLVVFEDKDMKPIGRALHRRLNDLVSRRQKQTSLAKKTAWALYDGKSLEKIVDQVARFVDELEKAFPIEAVCHKLAEIEIEEVEDEASLTILKDAAGGIDAAMSDAAAQKIDAIVGRNSAKDIRTEERARVQLGNVVTAAALHGGIRISDQTTNSAETVVGKGESRVLIGNEYGGKGFWDN [V264A]: the “ddG of mutation (higher = less stable)” value is -1 kcal/mol and the unfolding free energy amounted to 4 kcal/mol.
For MSEPFGIVAGALNVAGLFNNCVDCFEYVQLGRPFGRDYERCQLRLDIAKARLSRWGEAVKINDDPRFHSDAPTDKSVQLAKSIVEEILLLFESAQKTSKRYELVADQQDLVVFEDKDMKPIGRALHRRLNDLVSRRQKQTSLAKKTAWALYDGKSLEKIVDQVARFVDELEKAFPIEAVCHKLAEIEIEEVEDEASLTILKDAAGGIDAAMSDAAAQKIDAIVGRNSAADIRTEERARVQLGNVVTAAALHGGIRISDQTTNSVETVVGKGESRVLIGNEYGGKGFWDN [K229A], the “ddG of mutation (higher = less stable)” value was -1.5 kcal/mol and the unfolding free energy stood at 4.4 kcal/mol.
In the same order, the values of MSEPFGIVAGALNVAGLFNNCVDCFEYVQLGRPFGRDYERCQLRLDIAKARLSRWGEAVKINDDPRFHSDAPTDKSVQLAKSIVEEILLLFESAQKTSKRYELVADQQDLVVFEDKDMKPIGRALHRRLNDLVSRRQKQTSLAKKTAWALYDGKSLEKIVDQVARFVDELEKAFPIEAVCHKLAEIEIEEVEDEASLTILKDAAGGIDAAMSDAAAQKIDAIVGRNSAKDIRTEERARVQLGNVVTAAALHGGIRISDQTTNSVETVVGKGESRVLIANEYGGKGFWDN [G278A] are 0.8 kcal/mol and 2.5 kcal/mol.
Consider MSEPFGIVAGALNVAGLFNNCVDCFEYVQLGRPFGRDYERCQLRLDIAKARLSRWGEAVKINDDPRFHSDAPTDKSVQLAKSIVEEILLLFESAQKTSKRYELVADQQDLVVFEDKDMKPIGRALHRRLNDLVSRRQKQTSLAKKTAWALYDGKSLEKIVDQVARFVDELEKAFPIEAVCHKLAEIEIEEVEDEASLTILKDAAGGIDAAMSDAAAQKIDAIVGRNSAKDIRTEERARAQLGNVVTAAALHGGIRISDQTTNSVETVVGKGESRVLIGNEYGGKGFWDN [V239A], for which the “ddG of mutation (higher = less stable)” value is -1 kcal/mol and the unfolding free energy worked out at 3.9 kcal/mol.
As to MSEPFGIVAGALNVAGLFNNCVDCFEYVQLGRPFGRDYERCQLRLDIAKARLSRWGEAVKINDDPRFHSDAPTDKSVQLAKSIVEEILLLFESAQKTSKRYELVADQQDLVVFEDKDMKPIGRALHRRLNDLVSRRQKQTSLAKKTAWALYDGKSLEKIVDQVARFVDELEKAFPIEAVCHKLAEIEIEEVEDEASLTILKDAAGGIDAAMSDAAAQKIDAIVGRNSAKDIRTEERARVQLGNVVTAAALHGGIRISDQTTNSVETVVGKGASRVLIGNEYGGKGFWDN [E272A], the “ddG of mutation (higher = less stable)” value is -1.9 kcal/mol and the unfolding free energy was 4.8 kcal/mol.
In the same order, the values of MSEPFGIVAGALNVAGLFNNCVDCFEYVQLGRPFGRDYERCQLRLDIAKARLSRWGEAVKINDDPRFHSDAPTDKSVQLAKSIVEEILLLFESAQKTSKRYELVADQQDLVVFEDKDMKPIGRALHRRLNDLVSRRQKQTSLAKKTAWALYDGKSLEKIVDQVARFVDELEKAFPIEAVCHKLAEIEIEEVEDEASLTILKDAAGGIDAAMSDAAAQKIDAIVGRNSAKDIRTEERARVQLGNVVTAAALHGGIRISDQTTNSVETVVGKGESRVLIGNEYGGKGFWAN [D288A] are -1.2 kcal/mol and 4.1 kcal/mol.
Regarding MSEPFGIVAGALNVAGLFNNCVDCFEYVQLGRPFGRDYERCQLRLDIAKARLSRWGEAVKINDDPRFHSDAPTDKSVQLAKSIVEEILLLFESAQKTSKRYELVADQQDLVVFEDKDMKPIGRALHRRLNDLVSRRQKQTSLAKKTAWALYDGKSLEKIVDQVARFVDELEKAFPIEAVCHKLAEIEIEEVEDEASLTILKDAAGGIDAAMSDAAAQKIDAIVGRNSAKDIRTEERARVQLGNVVTAAALHGGIRISDQTTNSVETAVGKGESRVLIGNEYGGKGFWDN [V267A], the “ddG of mutation (higher = less stable)” value is -0.2 kcal/mol and the unfolding free energy amounted to 2.9 kcal/mol.
In the same order, the values of MSEPFGIVAGALNVAGLFNNCVDCFEYVQLGRPFGRDYERCQLRLDIAKARLSRWGEAVKINDDPRFHSDAPTDKSVQLAKSIVEEILLLFESAQKTSKRYELVADQQDLVVFEDKDMKPIGRALHRRLNDLVSRRQKQTSLAKKTAWALYDGKSLEKIVDQVARFVDELEKAFPIEAVCHKLAEIEIEEVEDEASLTILKDAAGGIDAAMSDAAAQKIDAIVGRNSAKDIRTEERARVQAGNVVTAAALHGGIRISDQTTNSVETVVGKGESRVLIGNEYGGKGFWDN [L241A] are -1 kcal/mol and 3.9 kcal/mol.
In the same order, the values of MSEPFGIVAGALNVAGLFNNCVDCFEYVQLGRPFGRDYERCQLRLDIAKARLSRWGEAVKINDDPRFHSDAPTDKSVQLAKSIVEEILLLFESAQKTSKRYELVADQQDLVVFEDKDMKPIGRALHRRLNDLVSRRQKQTSLAKKTAWALYDGKSLEKIVDQVARFVDELEKAFPIEAVCHKLAEIEIEEVEDEASLTILKDAAGGIDAAMSDAAAQKIDAIVGRNSAKDIRTEERARVQLGNVVTAAALHGGIRISDQTTNSVETVVGKGEARVLIGNEYGGKGFWDN [S273A] are -1.4 kcal/mol and 4.3 kcal/mol.
